Data on 7 molecules can be found in patent publication US9618524B2, “Method, composition, isolation and identification of a plaque particle and related biomarker” (Plaxgen Inc., priority 2012, dated 2017).

To fix the notation:
B1: Ig gamma-2 chain C region (protein)
chain: ASTKGPSVFPLAPCSRSTSESTAALGCLVKDYFPEPVTVSWNSGALTSGVHTFPAVLQSSGLYSLSSVVTVPSSNFGTQTYTCNVDHKPSNTKVDKTVERKCCVECPPCPAPPVAGPSVFLFPPKPKDTLMISRTPEVTCVVVDVSHEDPEVQFNWYVDGVEVHNAKTKPREEQFNSTFRVVSVLTVVHQDWLNGKEYKCKVSNKGLPAPIEKTISKTKGQPREPQVYTLPPSREEMTKNQVSLTCLVKGFYPSDISVEWESNGQPENNYKTTPPMLDSDGSFFLYSKLTVDKSRWQQGNVFSCSVMHEALHNHYTQKSLSLSPGK
B2: Desmoglein-1 (protein)
chain: EWIKFAAACREGEDNSKRNPIAKIHSDCAANQQVTYRISGVGIDQPPYGIFVINQKTGEINITSIVDREVTPFFIIYCRALNSMGQDLERPLELRVRVLDINDNPPVFSMATFAGQIEENSNANTLVMILNATDADEPNNLNSKIAFKIIRQEPSDSPMFIINRNTGEIRTMNNFLDREQYGQYALAVRGSDRDGGADGMSAECECNIKILDVNDNIPYMEQSSYTIEIQENTLNSNLLEIRVIDLDEEFSANWMAVIFFISGNEGNWFEIEMNERTNVGILKVVKPLDYEAMQSLQLSIGVRNKAEFHHSIMSQYKLKASAISVTVLNVIEGPVFRPGSKTYVVTGNMGSNDKVGDFVATDLDTGRPSTTVRYVMGNNPADLLAVDSRTGKLTLKNKVTKEQYNMLGGKYQGTILSIDDNLQRTCTGTININIQSFGNDDRTNTEPNTKITTNTGRQESTSSTNYDTSTTSTDSSQVYSSEPGNGAKDLLSDNVHFGPAGIGLLIMGFLVLGLVPFLMICCDCGGAPRSAAGFEPVPECSDGAIHSWAVEGPQPEPRDITTVIPQIPPDNANIIECIDNSGVYTNEYGGREMQDLGGGERMTGFELTEGVKTSGMPEICQEYSGTLRRNSMRECREGGLNMNFMESYFCQKAYAYADEDEGRPSNDCLLIYDIEGVGSPAGSVGCCSFIGEDLDDSFLDTLGPKFKKLADISLGKESYPDLDPSWPPQSTEPVCLPQETEPVVSGHPPISPHFGTTTVISESTYPSGPGVLHPKPILDPLGYGNVTVTESYTTSDTLKPSVHVHDNRPASNVVVTERVVGPISGADLHGMLEMPDLRDGSNVIVTERVIAPSSSLPTSLTIHHPRESSNVVVTERVIQPTSGMIGSLSMHPELANAHNVIVTERVVSGAGVTGISGTTGISGGIGSSGLVGTSMGAGSGALSGAGISGGGIGLSSLGGTASIGHMRSSSDHHFNQTIGSASPSTARSRITKYSTVQYSK
B3: Isoform 2 of N-acetylmuramoyl-L-alanine amidase (protein)
chain: SLPLLMDSVIQALAELEQKVPAAKTRHTASAWLMSAPNSGPHNRLYHFLLGAWSLNATELDPCPLSPELLGLTKEVARHDVREGKEYGVVLAPDGSTVAVEPLLAGLEAGLQGRRVINLPLDSMAAPWETGDTFPDVVAIAPDVRATSSPGLRDGSPDVTTADIGANTPDATKGCPDVQASLPDAKAKSPPTMVDSLLAVTLAGNLGLTFLRGSQTQSHPDLGTEGCWDQLSAPRTFTLLDPKASLLTMAFLNGALDGVILGDYLSRTPEPRPSLSHLLSQYYGAGVARDPGFRSNFRRQNGAALTSASILAQQVWGTLVLLQRLEPVHLQLQCMSQEQLAQVAANATKEFTEAFLGCPAIHPRCRWGAAPYRGRPKLLQLPLGFLYVHHTYVPAPPCTDFTRCAANMRSMQRYHQDTQGWGDIGYSFVVGSDGYVYEGRGWHWVGAHTLGHNSRGFGVAIVGNYTAALPTEAALRTVRDTLPSCAVRAGLLRPDYALLGHRQLVRTDCPGDALFDLLRTWPHFTAVSLRSLHYTARRPSVYTSSTRPLPPACNSCARTASARPPTSRRHVYSGNLGPAFAGHSAGNIPDPVTSAYAASAQPQTQPACPFPSS
B4: Apolipoprotein C-II (protein)
chain: TQQPQQDEMPSPTFLTQVKESLSSYWESAKTAAQNLYEKTYLPAVDEKLRDLYSKSTAAMSTYTGIFTDQVLSVLKGEE
B5: Ig lambda chain V-III region (protein)
chain: SELTQDPAVSVALGQTVRITCQGDSLRSYYASWYQQKPGQAPVLVIYGKNNRPSGIPDRFSGSSSGNTASLTITGAQAEDEADYYCNSRDSS
B6: Platelet basic protein (protein)
chain: SSTKGQTKRNLAKGKEESLDSDLYAELRCMCIKTTSGIHPKNIQSLEVIGKGTHCNQVEVIATLKDGRKICLDPDAPRIKKIVQKKLAGDESAD
B7: Ig lambda chain V-III region LOI (protein)
chain: VTSYVLTQPPSVSVAPGQTARITCGGNNIGSKSVHWYQQKPGQAPVLVVYDDSDRPSGIPERFSGSNSGNTATLTISRVEAGDEADYYCQVWDSSSDHPT

The target in one experiment is T1, Abeta-42 plaque particles (Homo sapiens, UniProt P05067).
T1 construct: Abeta 1-42
The experiment is described as follows: Mass spectroscopy proteomics, semi-quantitative binding affinity of serum proteins (plaqueproteome, Table 2). Conditions: higher number = stronger affinity. In outline:
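AD patient serum or plasma (50% in PBS) was incubated with Abeta-42 aggregates (30 μg) for 1 h at 37 °C, then stained with Thioflavin S for 30 min. Labeled particles were FACS-sorted, trypsin/Lys-C digested overnight and analyzed by MS/MS. Sequest searched human UniProt; Scaffold/Protein Prophet validated the identifications.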
Consider B1, for which the “Semi-quantitative analysis of proteins binding to different plaque particles: Abeta-42” value stood at 11.
Same read-out and setting: then B2, with 5; and B3, with 0; and B4, with 0.
On the same count and under the same terms, then B5, with 0; and B6, with 0.
Still for that read-out and setting: the result for B7 reads 2.

Another experiment has as its system High Density cholesterol (Chl Large) plaque particles. The description is as above. Set-up: species or system human. Conditions: higher number = stronger affinity. Put shortly: (§1)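 Read-out is MS/MS protein identification (Sequest, strict trypsin, 20 ppm parent tolerance; Scaffold probabilities) of serum proteins bound to flow-sorted cholesterol plaque particles. These particles formed when 50% atherosclerotic serum was incubated with 30 μg cholesterol aggregates for 1 hr at 37° C.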
B1: the “Semi-quantitative analysis of proteins binding to different plaque particles: Chl Large” value was 12.
The same measure, in the same setting: then B2, with 0; and B3, with 4.
Take B4: the “Semi-quantitative analysis of proteins binding to different plaque particles: Chl Large” value worked out at 0.
Same read-out and setting: the result for B5 reads 1.
Still for that read-out and setting: then B6, with 0; and B7, with 1.

In another experiment the test system is Low density cholesterol (Chl small) plaque particles. The experiment is described as above. Set-up: species or system human. To be noted: higher number = stronger affinity. In outline:
as §1
As to B1, the “Semi-quantitative analysis of proteins binding to different plaque particles: Chl small” value was 14.
Same read-out and setting: the result for B2 reads 0.
Same read-out and setting: then B3, with 1.
On the same count and under the same terms, the result for B4 reads 1; that for B5, 1.
For the molecule B6, the “Semi-quantitative analysis of proteins binding to different plaque particles: Chl small” value stood at 0.
Same read-out and setting: the result for B7 reads 1.

The next experiment deals with T2, alpha-synuclein plaque particles (Homo sapiens, UniProt P37840).
T2 construct: 140 amino acids polypeptide
The experiment is described as above. To be noted: higher number = stronger affinity. In outline:
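AD-subject plasma or serum (800 μL of 50%) mixed with 30 μg preformed alpha-synuclein aggregates for 1 h at 37 °C; Thioflavin S-positive particles isolated by flow sorting. After reduction, acrylamide alkylation and overnight tryptic digestion, serum proteins identified by MS/MS with Sequest and Scaffold.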
As to B1, the “Semi-quantitative analysis of proteins binding to different plaque particles: Synuclein” value is reported as 10.
The same measure, in the same setting: the result for B2 reads 0.
Turning to B3, the “Semi-quantitative analysis of proteins binding to different plaque particles: Synuclein” value is 2.
The same measure, in the same setting: the result for B4 reads 1; that for B5, 2.
Still for that read-out and setting: the result for B6 reads 1.
On the same count and under the same terms, then B7, with 2.

The subject of the next experiment is Tau plaque particles. The experiment is described as above. The arrangement: species or system human. To be noted: higher number = stronger affinity. Put shortly:
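Synthetic Tau-74 and Tau-275 peptides (1 mg/mL PBS, 37° C, 2 h) aggregated; 30 μg aggregates incubated with 50% serum/plasma 1 h at 37° C, stained with Thioflavin S, and plaque particles sorted by flow cytometry. Bound proteins trypsin-digested and identified by MS/MS against human UniProt.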
For B1, the “Semi-quantitative analysis of proteins binding to different plaque particles: Tau” value is on record as 11.
Same read-out and setting: then B2, with 0; and B3, with 5.
Turning to B4, the “Semi-quantitative analysis of proteins binding to different plaque particles: Tau” value was 0.
The same measure, in the same setting: the result for B5 reads 2.
Same read-out and setting: then B6, with 2.
Same read-out and setting: the result for B7 reads 1.
